Results reported in PMC4419694.
Values belong to the substance of their own block, whether it stands above or below them.

How the values were obtained:
Test in all cases: AUC
SSBΔ120-166 (E. coli) = biological target: SSBΔ120-166 (E. coli)
SSBΔ130-166 (E. coli) = biological target: SSBΔ130-166 (E. coli)
SSBΔ151-166 (E. coli) = biological target: SSBΔ151-166 (E. coli)
SSBΔC8 (E. coli) = biological target: SSBΔC8 (E. coli)

stoichiometry N (SSBΔ120-166 (E. coli)): 4
Substance: SSBΔ120-166 (natural protein)

stoichiometry N (SSBΔ130-166 (E. coli)): 4
Substance: SSBΔ130-166 (natural protein)

stoichiometry N (SSBΔ151-166 (E. coli)): 4
Substance: SSBΔ151-166 (natural protein)

stoichiometry N (SSBΔC8 (E. coli)): 4
Substance: SSBΔC8 (domain or fragment)
